Source: patent publication US20170267766A1

Legend:
[1] = biological target: rmIGF-1R protein (R&D Systems, cat No 6630-GR/Fc) (murine) (UniProt Q60751); experiment: ELISA, coated rm IGF-1R, 5 ug/ml
[2] = biological target: rhIGF-1R protein (R&D Systems, Cat No 391-GR) (human) (UniProt P08069); experiment: ELISA, coated rh IGF-1R, 5 ug/ml
[3] = biological target: rhIR protein (R&D Systems, cat No 1544-IR/CF) (human) (UniProt P06213); experiment: ELISA, coated rh Insulin R, 5 ug/ml
Sequence of rhIR protein (R&D Systems, cat No 1544-IR/CF) (human) (P06213 other isoform, or with tags, fused parts or gaps limits assumed): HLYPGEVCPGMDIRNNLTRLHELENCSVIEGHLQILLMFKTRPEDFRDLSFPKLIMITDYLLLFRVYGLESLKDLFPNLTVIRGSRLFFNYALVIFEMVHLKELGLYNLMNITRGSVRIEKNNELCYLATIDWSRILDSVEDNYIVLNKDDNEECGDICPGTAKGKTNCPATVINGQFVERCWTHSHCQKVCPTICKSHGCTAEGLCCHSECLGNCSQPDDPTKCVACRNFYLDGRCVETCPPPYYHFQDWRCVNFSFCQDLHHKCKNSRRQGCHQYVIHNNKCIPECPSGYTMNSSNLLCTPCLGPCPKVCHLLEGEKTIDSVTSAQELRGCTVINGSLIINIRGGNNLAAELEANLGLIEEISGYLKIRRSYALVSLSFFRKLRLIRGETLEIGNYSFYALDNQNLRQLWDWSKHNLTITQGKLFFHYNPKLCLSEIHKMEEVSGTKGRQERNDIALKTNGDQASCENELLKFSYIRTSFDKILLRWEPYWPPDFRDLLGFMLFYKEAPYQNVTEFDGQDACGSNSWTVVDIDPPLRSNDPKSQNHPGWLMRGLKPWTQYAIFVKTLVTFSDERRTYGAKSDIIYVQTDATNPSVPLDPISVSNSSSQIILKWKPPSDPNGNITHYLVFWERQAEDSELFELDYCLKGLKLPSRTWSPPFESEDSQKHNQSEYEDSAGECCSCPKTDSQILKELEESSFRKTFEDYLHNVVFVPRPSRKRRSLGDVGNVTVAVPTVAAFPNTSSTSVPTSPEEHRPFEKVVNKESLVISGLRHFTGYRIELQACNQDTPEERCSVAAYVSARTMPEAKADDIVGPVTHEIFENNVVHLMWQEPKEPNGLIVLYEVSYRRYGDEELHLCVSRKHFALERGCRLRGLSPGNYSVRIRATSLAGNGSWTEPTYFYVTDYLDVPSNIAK

Sequence of rmIGF-1R protein (R&D Systems, cat No 6630-GR/Fc) (murine) (Q60751 31-936): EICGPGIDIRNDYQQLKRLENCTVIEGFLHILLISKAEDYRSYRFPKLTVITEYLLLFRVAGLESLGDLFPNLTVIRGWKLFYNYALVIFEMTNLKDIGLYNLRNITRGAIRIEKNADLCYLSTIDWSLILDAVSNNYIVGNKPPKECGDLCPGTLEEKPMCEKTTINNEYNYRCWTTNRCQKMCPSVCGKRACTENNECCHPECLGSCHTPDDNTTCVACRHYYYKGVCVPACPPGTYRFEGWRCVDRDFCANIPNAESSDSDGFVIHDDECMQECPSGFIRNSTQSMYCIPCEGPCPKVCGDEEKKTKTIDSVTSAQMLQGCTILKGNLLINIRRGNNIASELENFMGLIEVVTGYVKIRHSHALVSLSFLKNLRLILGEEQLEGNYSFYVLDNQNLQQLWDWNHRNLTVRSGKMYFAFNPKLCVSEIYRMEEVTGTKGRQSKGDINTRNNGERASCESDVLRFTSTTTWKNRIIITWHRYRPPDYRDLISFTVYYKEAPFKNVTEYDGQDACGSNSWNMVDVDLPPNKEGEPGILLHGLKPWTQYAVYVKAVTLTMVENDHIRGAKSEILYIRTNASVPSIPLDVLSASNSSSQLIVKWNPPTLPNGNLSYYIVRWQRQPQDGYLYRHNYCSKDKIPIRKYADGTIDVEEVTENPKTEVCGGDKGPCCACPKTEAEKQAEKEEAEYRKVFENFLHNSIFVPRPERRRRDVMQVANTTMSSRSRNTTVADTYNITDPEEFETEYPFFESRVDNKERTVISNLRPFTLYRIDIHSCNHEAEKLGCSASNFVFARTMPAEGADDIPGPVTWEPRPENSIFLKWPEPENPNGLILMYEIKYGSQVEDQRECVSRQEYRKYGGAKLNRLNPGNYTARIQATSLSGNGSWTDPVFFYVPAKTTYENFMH

D.O 450 nm [1]: 0.116 D.O 450 nm
D.O 450 nm [2]: 0.093 D.O 450 nm
D.O 450 nm [3]: 0.127 D.O 450 nm
Substance: mIgG1 (antibody)
